The values below come from the supplement of paper PMC7877785.

The series can be described thus: self-splicing fitness, log relative to wild type (ln ratio); higher = more splicing; Tetrahymena group I intron in knt gene, E. coli kanamycin selection, DiMSum; sequences stand for … in CUCUCU…GGAGGGAAAAGUUAUCAGGCAUGCACCUGGUAGCUAGUCUUUAAACCAAUAGAUUGCAUCGGUUUAAAAGGCAAGACCGUCAAAUUGCGGGAAAGGGGUCAACAGCCGUUCAGUACCAAGUCUCAGGGGAAACUUUGAGAUGGCCUUGCAAAGGGUAUGGUAAUAAGCUGACGGACAUGGUCCUAACCACGCAGCCAAGUCCUAAGUCAACAGAUCUUCUGUUGAUAUGGAUGCAGUUCACAGACUAAAUGUCGGUCGGGGAAGAUGUAUUCUUCUCAUAAGAUAUAGUCGGACCUCUCCUUAAUGGGAGCUAGCGGAUGAAGUGAUGCAACACUGGAGCCGCUGGGAACUAAUUUGUAUGCGAAAGUAUAUUGAUUAGUUUUGGAGUACUCGUGGUCG
The method, boiled down: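 Pooled colonies went to amplicon sequencing on an Illumina HiSeq 2500 after six replicate transformations. The plates were LB agar with 100 μg/mL carbenicillin, 50 μM IPTG and 0.2% rhamnose, with or without 25 μg/mL kanamycin, incubated overnight at 37°C or 30°C. The E. coli BL21(DE3) library had all eight P1ex-region intron nucleotides randomised, the intron placed in the knt kanamycin-resistance gene on pET-22b(+). DiMSum fitness is the error-weighted combination of replicate fold changes, kanamycin against none, normalised to wild type.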

± gives the uncertainty stated by the source.

For AAUAAGCAAUAUUACGUGGC, the “self-splicing fitness (ln)” value is, setting by setting: (30 °C) -2.72 ± 0.22; (37 °C) -2.82 ± 0.36.

Turning to AAUAAGCAAUAUUACGUUAA, the “self-splicing fitness (ln)” value (30 °C) is -2.76 ± 0.19 and the “self-splicing fitness (ln)” value (37 °C) was -0.928 ± 0.13. On the same counts, the results for AAUAAGCAAUAUUACGUUCG are -1.5 ± 0.08 and -0.605 ± 0.095. The matching figures for AAUAAGCAAUAUUACGUUGU: -3.22 ± 0.14 and -2.51 ± 0.19. The matching figures for AAUAAGCAAUAUUACGUUUU: -1.78 ± 0.076 and -1.55 ± 0.12. With AAUCAGCAAUAUUACGAACG, the “self-splicing fitness (ln)” value was -0.399 ± 0.088 (30 °C) and -0.368 ± 0.1 (37 °C).

As for AAUCAGCAAUAUUACGAAGC, the “self-splicing fitness (ln)” value by setting is: (30 °C) -0.428 ± 0.11; (37 °C) -0.998 ± 0.14. As to AAUCAGCAAUAUUACGAAGU, the “self-splicing fitness (ln)” value is, setting by setting: (30 °C) -0.414 ± 0.059; (37 °C) 0.136 ± 0.084. The matching figures for AAUCAGCAAUAUUACGACAU: 0.114 ± 0.011 and 0.208 ± 0.032. The matching figures for AAUCAGCAAUAUUACGACGC: -0.394 ± 0.098 and -0.936 ± 0.11. On the same counts, the results for AAUCAGCAAUAUUACGAGCA are -0.936 ± 0.14 and -0.0653 ± 0.12. AAUCAGCAAUAUUACGAGUU: the “self-splicing fitness (ln)” value reads like this: (30 °C) -0.331 ± 0.049; (37 °C) 0.000416 ± 0.074. Turning to AAUCAGCAAUAUUACGCCUG, the “self-splicing fitness (ln)” value is, setting by setting: (30 °C) -0.906 ± 0.17; (37 °C) 0.165 ± 0.18.

For the sequence AAUCAGCAAUAUUACGCGGA, the “self-splicing fitness (ln)” value (30 °C) was -0.694 ± 0.076 and the “self-splicing fitness (ln)” value (37 °C) was -0.555 ± 0.079. The matching figures for AAUCAGCAAUAUUACGCUAU: -0.347 ± 0.084 and 0.0833 ± 0.12. Regarding AAUCAGCAAUAUUACGCUUG, the “self-splicing fitness (ln)” value runs as follows: (30 °C) -0.11 ± 0.068; (37 °C) -0.33 ± 0.084. As for AAUCAGCAAUAUUACGGACU, the “self-splicing fitness (ln)” value is, setting by setting: (30 °C) -0.329 ± 0.1; (37 °C) -0.697 ± 0.099. The matching figures for AAUCAGCAAUAUUACGGAGA: -0.814 ± 0.085 and -1.04 ± 0.1. On to AAUCAGCAAUAUUACGGAGU, for which the “self-splicing fitness (ln)” value runs as follows: (30 °C) -0.488 ± 0.047; (37 °C) 0.346 ± 0.064. On to AAUCAGCAAUAUUACGGCCG, for which the “self-splicing fitness (ln)” value is -0.87 ± 0.12 (30 °C) and 0.00722 ± 0.18 (37 °C). For AAUCAGCAAUAUUACGGCUG, the “self-splicing fitness (ln)” value was -2.34 ± 0.15 (30 °C) and -1.87 ± 0.2 (37 °C). On the same counts, the results for AAUCAGCAAUAUUACGGGGU are -3.02 ± 0.17 and -1.39 ± 0.12. The matching figures for AAUCAGCAAUAUUACGGUCA: 0.236 ± 0.1 and 0.432 ± 0.12.

In the case of AAUCAGCAAUAUUACGUAAG, the “self-splicing fitness (ln)” value is, setting by setting: (30 °C) -0.572 ± 0.075; (37 °C) -0.104 ± 0.1. On to AAUCAGCAAUAUUACGUACG, for which the “self-splicing fitness (ln)” value was -0.91 ± 0.056 (30 °C) and -0.149 ± 0.075 (37 °C). On to AAUCAGCAAUAUUACGUCGA, for which the “self-splicing fitness (ln)” value runs as follows: (30 °C) -0.548 ± 0.095; (37 °C) 0.0423 ± 0.1. As for AAUCAGCAAUAUUACGUCUA, the “self-splicing fitness (ln)” value is, setting by setting: (30 °C) -0.491 ± 0.069; (37 °C) -0.133 ± 0.076.

With AAUCAGCAAUAUUACGUUAU, the “self-splicing fitness (ln)” value was -0.401 ± 0.041 (30 °C) and 0.272 ± 0.062 (37 °C).

On to AAUCAGCAAUAUUACGUUUA, for which the “self-splicing fitness (ln)” value is -0.652 ± 0.045 (30 °C) and -0.106 ± 0.06 (37 °C). Regarding AAUGAGCAAUAUUACGAAAU, the “self-splicing fitness (ln)” value runs as follows: (30 °C) -2.14 ± 0.28; (37 °C) -1.36 ± 0.34. On to AAUGAGCAAUAUUACGAAGC, for which the “self-splicing fitness (ln)” value (30 °C) is -3.08 ± 0.35 and the “self-splicing fitness (ln)” value (37 °C) was -1.89 ± 0.43.

In the case of AAUGAGCAAUAUUACGAUGC, for the setting “30 °C”, the “self-splicing fitness (ln)” value is -2.44 ± 0.21.

As for AAUGAGCAAUAUUACGCCCU, the “self-splicing fitness (ln)” value is -1.32 ± 0.12 (30 °C) and -1.16 ± 0.17 (37 °C). For AAUGAGCAAUAUUACGCGAU, the “self-splicing fitness (ln)” value (30 °C) is -3.63 ± 0.41 and the “self-splicing fitness (ln)” value (37 °C) is -0.995 ± 0.22. The matching figures for AAUGAGCAAUAUUACGCGGC: -2.15 ± 0.19 and -2.11 ± 0.24. Regarding AAUGAGCAAUAUUACGCGGG, the “self-splicing fitness (ln)” value was -3.11 ± 0.3 (30 °C) and -2.57 ± 0.25 (37 °C). The matching figures for AAUGAGCAAUAUUACGCUAA: -3.1 ± 0.36 and -1.9 ± 0.2. As for AAUGAGCAAUAUUACGCUCG, the “self-splicing fitness (ln)” value is, setting by setting: (30 °C) -2.31 ± 0.25; (37 °C) -0.585 ± 0.18. AAUGAGCAAUAUUACGCUGU: the “self-splicing fitness (ln)” value was -1.84 ± 0.34 (30 °C) and -2.21 ± 0.4 (37 °C). For AAUGAGCAAUAUUACGCUUC, the “self-splicing fitness (ln)” value (37 °C) was -1.71 ± 0.23. Take AAUGAGCAAUAUUACGGAAA: the “self-splicing fitness (ln)” value by setting is: (30 °C) -2.99 ± 0.48; (37 °C) -1.86 ± 0.31. AAUGAGCAAUAUUACGGACG: the “self-splicing fitness (ln)” value (30 °C) was -2.44 ± 0.2. Regarding AAUGAGCAAUAUUACGGAUA, the “self-splicing fitness (ln)” value is -1.86 ± 0.27 (30 °C) and -1.8 ± 0.37 (37 °C). As to AAUGAGCAAUAUUACGGAUC, the “self-splicing fitness (ln)” value is, setting by setting: (30 °C) -2.24 ± 0.3; (37 °C) -0.974 ± 0.3.

In the case of AAUGAGCAAUAUUACGGCCA, the “self-splicing fitness (ln)” value (37 °C) came to 0.411 ± 0.39. Consider AAUGAGCAAUAUUACGGCCU, for which the “self-splicing fitness (ln)” value by setting is: (30 °C) -1.17 ± 0.17; (37 °C) -1.47 ± 0.21. On the same counts, the results for AAUGAGCAAUAUUACGGCGC are -1.82 ± 0.089 and -1.09 ± 0.11. As for AAUGAGCAAUAUUACGGGUC, the “self-splicing fitness (ln)” value (30 °C) was -2.57 ± 0.37. With AAUGAGCAAUAUUACGGUCG, the “self-splicing fitness (ln)” value (30 °C) was -2.26 ± 0.14 and the “self-splicing fitness (ln)” value (37 °C) is -1.62 ± 0.2.

On to AAUGAGCAAUAUUACGUACG, for which the “self-splicing fitness (ln)” value runs as follows: (30 °C) -3 ± 0.26; (37 °C) -2.32 ± 0.24. As to AAUGAGCAAUAUUACGUCCA, the “self-splicing fitness (ln)” value (30 °C) was -2.41 ± 0.19 and the “self-splicing fitness (ln)” value (37 °C) was -2.27 ± 0.3. The matching figures for AAUGAGCAAUAUUACGUUAG: -3.2 ± 0.21 and -2.3 ± 0.25.

With AAUUAGCAAUAUUACGAACU, the “self-splicing fitness (ln)” value is, setting by setting: (30 °C) 0.296 ± 0.1; (37 °C) 0.321 ± 0.14. On to AAUUAGCAAUAUUACGACGG, for which the “self-splicing fitness (ln)” value reads like this: (30 °C) -0.969 ± 0.14; (37 °C) -0.972 ± 0.25. On the same counts, the results for AAUUAGCAAUAUUACGAUAA are -0.869 ± 0.098 and -0.069 ± 0.14. The matching figures for AAUUAGCAAUAUUACGAUGG: -3.31 ± 0.24 and -0.247 ± 0.17. AAUUAGCAAUAUUACGCACC: the “self-splicing fitness (ln)” value is -0.701 ± 0.15 (30 °C) and 0.362 ± 0.17 (37 °C). The matching figures for AAUUAGCAAUAUUACGCACU: -0.0585 ± 0.12 and -0.106 ± 0.15. Turning to AAUUAGCAAUAUUACGCCCC, the “self-splicing fitness (ln)” value is -0.573 ± 0.33 (30 °C) and -0.798 ± 0.49 (37 °C).

For AAUUAGCAAUAUUACGCGCU, the “self-splicing fitness (ln)” value is -0.647 ± 0.13 (30 °C) and -0.214 ± 0.2 (37 °C). The matching figures for AAUUAGCAAUAUUACGCUCU: -0.501 ± 0.11 and 0.54 ± 0.15. On to AAUUAGCAAUAUUACGCUGC, for which the “self-splicing fitness (ln)” value (37 °C) is -2.79 ± 0.4.
